Source: patent US20060099689

B1: murine Caspase-3 (protein)
chain 1: SGIYLDSSYKMDYPEMGICIIINNKNFHKSTGMSSRSGTDVDAANLRETFMGLKYQVRNKNDLTREDILELMDSVSKEDHSKRSSFVCVILSHGDEGVIYGTNGPVELKKLTSFFRGDYCRSLTGKPKLFIIQACRGTELDCGIETD
chain 2: SGTDEEMACQKIPVEADFLYAYSTAPGYYSWRNSKDGSWFIQSLCSMLKLYAHKLEFMHILTRVNRKVATEFESFSLDSTFHAKKQIPCIVSMLTKELYFYH
B2: murine caspase 7 (protein)
chain 1: AKPDRSSIISSILLKKKRNASAGPVRTGRDRVPTYLYRMDFQKMGKCIIINNKNFDKATGMDVRNGTDKDAGALFKCFQNLGFEVTVHNDCSCAKMQDLLRKASEEDHSNSACFACVLLSHGEEDLIYGKDGVTPIKDLTAHFRGDRCKTLLEKPKLFFIQACRGTELDDGIQAD
chain 2: ANPRNKIPVEADFLFAYSTVPGYYSWRNPGKGSWFVQALCSILNEHGKDLEIMQILTRVNDRVARHFESQSDDPRFNEKKQIPCMVSMLTKELYFSR

Tests used:
[1] = target: fusion protein of GST and mLIF where the DEVD site is preceded by a GPGS sequence (L1: GPGSDEVD), P09056
[2] = target: H-GST-DEVD/S-mLIF, P09056
[3] = target: fusion protein of GST and mLIF with only the DEVD site in the linker (L0: DEVD), P09056
[4] = target: the 20 fusion proteins of the formula H-GST-DEVD/X-mLIF, where X is any of the possible 20 amino acids

| Protein | percent of fusion product processed (densitometric scanning of the gel) [1] | amount of enzyme sufficient to process 10 microgram of fusion protein [2] | time needed for processing [2] | processing of the fusion protein (gel, FIG. 3b) (GST-C-hIFNα) | processing yield (densitometric scanning of the gel) [3] | cleavage of P1′ variants (gel, FIG. 6) [4] | percent of fusion protein processed (2 microgram enzyme on 10 microgram substrate) (MBP-L0-hIFNalpha) | amount of enzyme sufficient to process 10 microgram of fusion protein (H-GST-DEVD/mLIF, P09056) | percent of fusion protein processed (50 ng enzyme, 45 minutes) (H-GST-DEVD/mLIF, P09056) | time needed for processing (H-GST-DEVD/mLIF, P09056) | efficiency of cleavage (H-GST-DEVD/mLIF, P09056) |
| --- | --- | --- | --- | --- | --- | --- | --- | --- | --- | --- | --- |
| B1 | 90% of the fusion product containing L1 was processed | as little as 50 ng of enzyme is sufficient to process 10 microgram of protein | the reaction was finished after 45 minutes when using Caspase-3 | Caspase-3 on the other hand gave a high yield of processing even after only 45 minutes of incubation | only 10% processing yield was seen under these conditions when using the L0 linker | all amino acids in the P1′ position could be processed by Caspase-3 | 2 microgram of caspase 3 is needed to process only 50% of 10 microgram of MBP-L0-hIFNalpha | as little as 50 ng of enzyme is sufficient to process 10 microgram of protein | An amount of 50 ng is sufficient to process >90% of 10 microgram of a GST-mLIF fusion protein | the reaction was finished after 45 minutes when using Caspase-3 |  |
| B2 |  |  |  |  |  |  |  |  |  |  | the murine caspase 7 was not as active as the murine caspase 3 and more enzyme needed to be added to obtain the same efficiency of cleavage |
